Results from the nanobody polyreactivity screen of Harvey et al. (2022).

Assay: yeast display, Sf9 membrane polyspecificity reagent, FACS + sequencing; frameworks hold sequencing errors
In short: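 A nanobody's polyreactivity label depends on the gate it was sorted from. Yeast display cells were stained with 10% biotinylated, detergent-solubilized Sf9 membrane reagent for 1 hour at 4 °C, enriched on streptavidin microbeads and sorted by FACS. The low and high (top ~1%) gates were set on anti-HA fluorescence for expression and streptavidin fluorescence for reagent binding.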

Sequence	polyreactivity (PSR sort gate)
QVQLVESGGGLVQAGGSLRLSCAASGLTFTGYFMGWYRQAPGKERELVAAISYSGSSTYYADSVKGRFTISRDNAKNTVYLQMNSLKQEDTAVYYCAATSHAYYPRYYYWGQGTQVTVSS	high polyreactivity
QVQLVESGGGLVQAGGSLRLSCAASGSTLHSYAMGWYRQAPGKERELVAALSFRGGSTYADSVKGRFTISRDNAKNTVYLQMNSLKPEDTAVYYCATRSTRADWYIVGYDYWGQGTQVTVSS	low polyreactivity
QVQLVESGGGLVQAGGSLRLSCAASGIIFFSNAMGWYRQAPGKERELVAAITGGSSTNYADSVKGRFTISRDNAKNTVYLQMNSLKPEENAVYYCNAPTKSTPRSEPIPYYEFDYWGQGTQVTVSS	low polyreactivity
QVQLVESGGGLVQAGCSLRLSCAASGSTFFFNAMGWYRQAPGKERELVAAITGRCGSTYYADSVKGRFTISRDNAKNTVYLQMNSLIPEDTAVYYCAAEGVPYWSSRFWRYDYWGQGTQVTVSS	low polyreactivity
QVQLVESGGCLVQAGGSLRLSCAASGSIFHPYAMGWYRPAPGKERELVAAISKSGGNTYYADSVKGRFTISRDNAKNTVYLQMNSLKPEHTEVYYCAADYYRGRYSDRYDYWGQGTQVTVSS	low polyreactivity
QVQLVESGGGLVQAGGSLRLSCAASGSIFTAYARGWYRQAPGKERELVAAISRSGGRTYYADSVKGRFTISRDNPKKTVYLQMNSLKPEDTAVYYCAARRRRYIANLYNYWGQGTQVTVSS	high polyreactivity
QVQLVESGGGLVQAGGSLRLSCAASVSTFALYVMGWYRQAPGKERELVAAITDSSSTYYADSVKGRFTISRDNAKNTVYLQMNSLKPEDTAVYYCAARGRLIYAITYRNSPVYYWGQGTQVTVSS	low polyreactivity
QVQLVESGGGLVQAGGSLRLSCAASGSIFSFYTMGWYRQAPGKERELVASSTTYADSVKGRFTISRDNAKNTVYLQMNSLQPEDTAVYYCATRHPARRDYWGQGTQVTVSS	low polyreactivity
QVQLVESGGGLVQAGGSLRLSCAASGFTFGYYGMGWYRQAPGKVRELVAAINWSGVNTNYADSVKGRFTISRDNAKNTVYLQMNSLKPEDTAVYYCAADAGYDGYGYWGQGTQVTVSS	low polyreactivity
QVQLVESGGCLVQAGGSLRLSCAASGRIFYIYAMGWYRQAPGKERELVAAITNGGSTNYADSVKGRFTISRDNAKNTVYLQMNSLKPEDTAVYYCAASVGTYAYGRTVYRYDYWGQGTQVTVSS	low polyreactivity
QLQLVESGACLVQAGGSLRLSCAASGRIFTSYSMGWYRHAPGKEREMVAAINRGADTYYADSVKGRFTISRDNAKNTVYLQMNSVKPEDNAVYYCNAADAVSDYPDFQIYDYWGQGTQVTVSS	low polyreactivity
QVQLVESGGGLVQAGGSLRLSCAASGSTFLYYTMGWYRQAPGKERELVAAITNGGGSTYYADSVKGRFTISRDNAKNTVYLQMNSLKPEDTAVYYCNAPTVKYRLGYDYWGQGTQVTVSS	high polyreactivity
QVQLVESGGGLVQAGGSLRLSCAASGSTFLSYAMGWYRQAPGKERELVAVISWSGVSTYYADSVKGRFTISRDNAKNTVYLQMNSLNPEDTEVYYCNTGHHYIRTYGYWGQGTQVTVSS	low polyreactivity
QVQLVESGGGLVQAGGSLRLSCAASGITFTRYTMGWYRPAPGKERELVAAITGGSTYYADSVKGRFTISRDNAKNTVYLQMNSLKPEDTAVYYCAAAYESPYIQPLDYWGQGTQVTVSS	high polyreactivity
QVQLVESGGVLVQAGGSLRLSCAPSGRIFNYYAMGWYRQAPGKERELVAAISSSGGRTYYADSVKGRFTISRDNAKNTVYLQMNSLKPEDTAVYYCAAYDSLRYSTYDYWGQGTQVTVSS	high polyreactivity
QVQLVESGGGLVQAGGSLRLSCAASGSILGGNAKGWYRQAPGKERELVAAITFSGGGTYYADSVKGRFTISRDNAKNTVYLQMNSLKPEDTAVYYCAADKDGYTYEFDYWGQGTQVTVSS	low polyreactivity

Sequence	polyreactivity (PSR sort gate)
QVQLVESGGGLVKAGGSLRLSCAASGRTFGSYAMGWYRLAPGTERELVAAITGSGAGTYYADSVKGRFTISRDNAKNTVYLQMNSLKPEDTSVYYCAARRPWQFYYWVQGTQVTVSS	high polyreactivity
QVQLVESGGGLVQAGGSLRLSCAASGFIFYSNAMGWYRQAPGKERELVATITGDGGTTYYADSVKGRFTISRDNAKNTVYLQMNSLKPEDTAVYYCAKDYIYRGYYTDFRYEDYDYWGQGTQVTVSS	low polyreactivity
QVQLVESGGGLVQAGGSLRLSCAASGSIFRSNALGWYRQAPGKERELVAAISWSGGRTYYADSVKGRFTISRDNAKNTVSLQMTSLKPEDTAVYYCAVGFRTLHGDYGYWGQGTQVTVSS	high polyreactivity
QVQLEESGRGLVQAGGSLRLSCAASGSTFWSYAMGWYRQAPGKERELVATITRAGTTNYADSVKGRFTISRDNAKNTVYLQMNSLKPVDTAVFYCATRRPIYVRAYDYWGQGTQVTVSS	high polyreactivity
QVQLVESGGGLVQAGGSLRLSCAASGFTFWDYAMGWYRQAPGKERELVAAISWSGGSTYYADSVKGRFTISRDNAKNTVYLQMNSLKPEDTAVYYCNAVHYSHHGYDYWGQGTQVTVSS	low polyreactivity
QVQLVYSGGGLVQAGGSLRLSCAASGSIFFVYAMGWYRQAPGKERELDAAITSGGSTKDADSVKGRFTISRDNAKNTVYLQMNSLKPEDTAVYYCAKDYKCIATEGAFDYWGQGTQVTVSS	low polyreactivity
QVQLVESGGGLVQAGGSLRLSCAASGIIFPPYTMGWYRQAPGKERELVAAINTRGSRTYYADSVKGRFTISRDNAKNTVYLQMNSLKPEDTAVYYCAADVWWSTTYDYWGQGTQVTVSS	high polyreactivity
QVQLVESGGGLVQAGGSLRLSCAASGSIYGYVKGWYRPAPGKERELVAAIRRSGGSTYYADSVKGRFTISRDNAKNTVYLQMNSLKPEDTAVYYCAARTYGTDRYYYWGQGTQVTVSS	high polyreactivity
QVQLGESGGGLDQAGGSLRLSCAASGRTFTNNAMGWYRQAPGKERELVAAITSGGRTNYADSVKGRFTISRDNAKNTVYLQMNSLKPEDTAVYYFAARIPSDGYYYWGQGTQVTVSS	high polyreactivity
QVQLVESGGGLVQAGGSLRLSCAASGLIFYQYAMGWYRQAPGKERELVAAINWSGGSTYYADSVKGRFTISRDNAKNTVYLQMNSLKPEDTAVYYCAADTAFRFALTRYRPMDYWGQGTQVTVSS	high polyreactivity
QVQLVESGGGLVQAGGSLRLSCAASGSIFITYDMGWYRQAPGKERELVAAISSVGRTTYADSVKGRFTISRDNAKNTVYLQMNSLKTEDTAVYYCAVVGRSSHNVRTYGYWGQGTQVTVTS	low polyreactivity
QFQLVESGGGLVQAGGSLRLSCAASGFTFEANAMGWYRKAPGKERELVASITRSDGSTHYADSVKGRFTISRDNAKNTVYLLMNRLKPEDTAVYYCAAVPESLTPKKGYGYWGKGTQVTVSS	low polyreactivity
QVQLVESGGGLVQAGGSLRLSCAASGLISESYAMGWYRQAPGKETELVAAISSGGSTYYADSVKGRFTISRDNAKNTVYLQMNSLNPEDTAVYFCNATGYKYNYGHAYYYAVDYWGQGTQVTVSS	low polyreactivity
QVQLVESGGGLVQAGGSLRLSCAASGRTLNYYAMVCYRQAPGKERELVASIDWDTGITDYADSVKGRFTISRDNAKNTVYLQMNSLKPEDSAVYYCAAVRVTKKYSYAYWGQGTQVTVSS	low polyreactivity
QVQLVESGGGLVQAGCSLRLSCAASGYNLFAYAMGWYRQSPGKERELVATINTSGGITYYADSVNGRFTISRDIANNTVYLQMNSLKPEDTAVYYCAAADGGGLVTYYYWGQGTQVTVSS	low polyreactivity
QVHLVESGGGLVQAVSSLRLSCAASGSTFRAYAMGWYRQEPGKDRELVARITFSGGSTYYADSVKGRFTISRDNAKNTVYLQMNSLKPEDTAVYYCNARRTYLDRYNYWGQGTQVTVSS	high polyreactivity
